Test results as given in article PMC6930887.
Several values for one entry are separate records, joined by “and”; a condition that tells them apart may be missing. Identical values can stand only once.

Target: T1, endogenously expressed σ1R of mouse brain cortex (mouse (endogenous in brain cortex)), O55242
T1 chain: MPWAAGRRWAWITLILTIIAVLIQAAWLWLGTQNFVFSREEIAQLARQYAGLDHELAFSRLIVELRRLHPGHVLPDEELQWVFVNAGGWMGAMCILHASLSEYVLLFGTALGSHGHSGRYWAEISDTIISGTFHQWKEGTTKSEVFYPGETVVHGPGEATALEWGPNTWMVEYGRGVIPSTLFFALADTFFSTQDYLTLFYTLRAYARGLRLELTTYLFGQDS
Test: SDS-PAGE western blot without heat denaturation; mouse brain cortex homogenised in lysis buffer, samples kept on ice, same protocol as for the transfected cells
Conditions: remark: other sources report otherwise

B1: endogenously expressed σ1R of mouse brain cortex, O55242 1-223 (receptor)
chain: T1 chain
stoichiometry N: 2 and 4
